Assay results as given in publication PMC3985873.
Where two headings read alike, the source gives them in different places.

T1: MutS-E41A (Thermus aquaticus, UniProt Q56215 1-811, E41A)
T1 sequence: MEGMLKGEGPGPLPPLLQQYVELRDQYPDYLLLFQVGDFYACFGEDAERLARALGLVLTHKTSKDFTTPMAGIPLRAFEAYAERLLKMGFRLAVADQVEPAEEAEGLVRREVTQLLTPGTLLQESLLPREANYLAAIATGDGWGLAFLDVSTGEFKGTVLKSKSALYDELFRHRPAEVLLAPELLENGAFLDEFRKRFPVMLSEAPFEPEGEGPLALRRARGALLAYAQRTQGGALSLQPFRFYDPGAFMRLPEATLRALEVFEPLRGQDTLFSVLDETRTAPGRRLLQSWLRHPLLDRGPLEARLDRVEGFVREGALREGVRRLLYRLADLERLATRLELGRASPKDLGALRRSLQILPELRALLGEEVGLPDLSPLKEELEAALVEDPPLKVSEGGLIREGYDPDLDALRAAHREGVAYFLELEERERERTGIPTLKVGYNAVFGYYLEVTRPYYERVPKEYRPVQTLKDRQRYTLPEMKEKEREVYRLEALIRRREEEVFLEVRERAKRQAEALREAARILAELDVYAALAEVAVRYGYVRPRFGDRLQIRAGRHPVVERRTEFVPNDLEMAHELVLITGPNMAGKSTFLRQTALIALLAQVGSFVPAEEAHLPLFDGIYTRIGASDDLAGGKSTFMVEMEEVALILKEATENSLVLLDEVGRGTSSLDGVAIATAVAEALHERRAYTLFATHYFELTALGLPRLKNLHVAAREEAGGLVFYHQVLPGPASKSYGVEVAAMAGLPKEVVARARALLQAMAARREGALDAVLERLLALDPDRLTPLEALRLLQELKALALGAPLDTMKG

T2: MutS (Thermus aquaticus, UniProt Q56215 1-811)
T2 sequence: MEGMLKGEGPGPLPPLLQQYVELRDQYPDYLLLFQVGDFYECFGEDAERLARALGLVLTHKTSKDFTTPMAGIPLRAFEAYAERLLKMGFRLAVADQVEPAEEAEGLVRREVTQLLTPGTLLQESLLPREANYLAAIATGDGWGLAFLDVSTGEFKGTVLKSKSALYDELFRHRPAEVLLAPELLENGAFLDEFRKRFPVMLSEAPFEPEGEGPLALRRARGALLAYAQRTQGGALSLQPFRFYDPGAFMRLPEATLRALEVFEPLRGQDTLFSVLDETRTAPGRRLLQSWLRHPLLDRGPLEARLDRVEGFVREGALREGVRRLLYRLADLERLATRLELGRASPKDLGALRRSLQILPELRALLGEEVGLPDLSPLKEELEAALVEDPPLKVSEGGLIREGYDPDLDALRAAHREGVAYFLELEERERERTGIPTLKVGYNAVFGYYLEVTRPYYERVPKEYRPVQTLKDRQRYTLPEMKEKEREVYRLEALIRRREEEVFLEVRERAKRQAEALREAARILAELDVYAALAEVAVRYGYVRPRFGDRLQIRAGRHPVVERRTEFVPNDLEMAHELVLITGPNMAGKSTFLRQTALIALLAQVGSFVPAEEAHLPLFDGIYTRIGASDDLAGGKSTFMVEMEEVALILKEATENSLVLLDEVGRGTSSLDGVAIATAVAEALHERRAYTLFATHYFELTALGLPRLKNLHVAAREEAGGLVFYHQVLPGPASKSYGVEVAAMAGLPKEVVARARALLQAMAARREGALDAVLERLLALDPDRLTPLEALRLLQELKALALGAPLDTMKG


How the values were obtained:
Assay in all cases: smFRET
MutS-E41A [1] = biological target: T1, MutS-E41A
MutS [2] = biological target: T2, MutS
MutS [3] = biological target: T2, MutS; remark: listed apart in the source
MutS-E41A [4] = biological target: T1, MutS-E41A; remark: listed apart in the source

Binder	binding result (MutS-E41A [1])	binding result (MutS [2])	binding result (MutS [3])	binding result (MutS-E41A [4])
GT mismatch DNA (A1/B1/C1-GT) (dsDNA) DNA 1: TGTCGGGGCTGGCTTAAGGTGTGAAATACCTCATCTCGAGCGTGCCGATA DNA 2: TATCGGCACGTTCGAGATG DNA 3: AGGTATTTCACACCTTAAGCCAGCCCCGACA	binds	binds		
T-bulge DNA (A1/B1/C2-T-bulge) (dsDNA) DNA 1: TGTCGGGGCTGGCTTAAGGTGTGAAATACCTCATCTCGAGCGTGCCGATA DNA 2: TATCGGCACGTCTCGAGATG DNA 3: AGGTATTTCACACCTTAAGCCAGCCCCGACA			binds	binds
